Among the data in patent US20250163145A1 (SHIONOGI, published 2025) are IC50 values, retold here.

This test has as its target T1, epitope peptide Cys-CE3C long (also: biotin label, site not given here).
T1 peptide: CSVNVDKQPKYEYSL
The test is described as follows: competitive ELISA, unlabeled vs biotin-labeled peptide, antibody on anti-human IgG plate. On the procedure:
A diluted solution of the obtained recombinant humanized antibody, a biotin-labeled immunogen peptide, and Streptavidin-HRP (manufactured by PIERCE) were added to an anti-human IgG antibody-immobilized plate, and reacted overnight at 4° C. […] Next, a recombinant human antibody at the dilution rate, a biotin-labeled immunogen peptide, and Streptavidin-HRP (manufactured by PIERCE) were added. At the same time, a dilution series of unlabeled immunogenic peptide was added and reacted overnight at 4° C. After washing twice with ELISA wash buffer, TMB-Substrate Chromogen (manufactured by Thermo Fisher Scientific) was added to develop color, the reaction was stopped with an equal amount of 0.5N sulfuric acid, and the absorbance at 450 nm was measured. The concentration of the unlabeled peptide which attenuated the signal of the biotin-labeled peptide by half was defined as the affinity (IC50).
Background: An ELISA detects its analyte on a solid surface through an enzyme-linked reagent.

Where no end group is shown, it is not given here.

B1: humanized antibody h15H11 (IGHV7-4-1 Q43R, G44S, R94P / IGKV7-3 Y36F, V78M) (antibody, human IgG4 S228P, kappa, V domains shown)
VH: QVQLVQSGSELKKPGASVKVSCKASGYTFTDYNMHWVRQAPGRSLEWMGRINPKNGVINSNEKFKDRFVFSLDTSVSTAYLQISSLKAEDTAVYYCAPSYYGGNTDAYWGQGTLVTVSS
VL: DIVLTQSPASLAVSPGQRATITCRASESVDNYGISFMNWFQQKPGQPPKLLIYAASSQGSGVPARFSGSGSGTDFTLTINPMEANDTANYYCQQSKEFPWTFGGGTKVEIKR
notes: hIgG4Pro/hIgK; also called h15H11-WT; h15H11-wt
For orientation: IC50 means the concentration needed to halve the response being measured. The molecule B1 showed an IC50 of 1.44 nM.

B2: h15H11-7 (antibody, human IgG4 S228P, kappa, V domains shown)
VH: QVQLVQSGSELKKPGASVKVSCKASGYTFTEYNMHWVRQAPGRSLEWMGRINPKNGVILSNEKFKDRFVFSLDTSVSTAYLQISSLKAEDTAVYYCAPSYYGGNDDAYWGQGTLVTVSS
VL: DIVLTQSPASLAVSPGQRATITCRASDSVDNYGISFLNWFQQKPGQPPKLLIYAASSQGSGVPARFSGSGSGTDFTLTINPMEANDTANYYCQQSKEFPWTFGGGTKVEIKR
notes: hIgG4Pro/hIgK
For the molecule B2, the IC50 is 0.58 nM.

B3: h15H11-15 (antibody, human IgG4 S228P, kappa, V domains shown)
VH: QVQLVQSGSELKKPGASVKVSCKASGYTFTDYNMHWVRQAPGRSLEWMGRINPKNGVILSNEKFKDRFVFSLDTSVSTAYLQISSLKAEDTAVYYCAPSYYGGDTDAYWGQGTLVTVSS
VL: DIVLTQSPASLAVSPGQRATITCRASESVDNYGISFMNWFQQKPGQPPKLLIYAASSQGSGVPARFSGSGSGTDFTLTINPMEANDTANYYCQQSKEFPWTFGGGTKVEIKR
notes: hIgG4Pro/hIgK
B3: the IC50 worked out at 0.66 nM.

B4: h15H11-2 (antibody, human IgG4 S228P, kappa, V domains shown)
VH: QVQLVQSGSELKKPGASVKVSCKASGYTFTDYNMHWVRQAPGRSLEWMGRINPKNGVILSNEKFKDRFVFSLDTSVSTAYLQISSLKAEDTAVYYCAPSYYGGDDDAYWGQGTLVTVSS
VL: DIVLTQSPASLAVSPGQRATITCRASDSVDNYGISFLNWFQQKPGQPPKLLIYAASSQGSGVPARFSGSGSGTDFTLTINPMEANDTANYYCQQSKEFPWTFGGGTKVEIKR
notes: hIgG4Pro/hIgK
B4: the IC50 was determined as 0.48 nM.

B5: h15H11-9 (antibody, human IgG4 S228P, kappa, V domains shown)
VH: QVQLVQSGSELKKPGASVKVSCKASGYTFTDYNMHWVRQAPGRSLEWMGRINPKNGVILSNEKFKDRFVFSLDTSVSTAYLQISSLKAEDTAVYYCAPSYYGGNDDAYWGQGTLVTVSS
VL: DIVLTQSPASLAVSPGQRATITCRASDSVDNYGISFLNWFQQKPGQPPKLLIYAASSQGSGVPARFSGSGSGTDFTLTINPMEANDTANYYCQQSKEFPWTFGGGTKVEIKR
notes: hIgG4Pro/hIgK
Regarding B5, the half-inhibitory concentration (IC50) was 0.61 nM.

B6: h15H11-11 (antibody, human IgG4 S228P, kappa, V domains shown)
VH: QVQLVQSGSELKKPGASVKVSCKASGYTFTDYNMHWVRQAPGRSLEWMGRINPKNGVILSNEKFKDRFVFSLDTSVSTAYLQISSLKAEDTAVYYCAPSYYGGDTDAYWGQGTLVTVSS
VL: DIVLTQSPASLAVSPGQRATITCRASDSVDNYGISFLNWFQQKPGQPPKLLIYAASSQGSGVPARFSGSGSGTDFTLTINPMEANDTANYYCQQSKEFPWTFGGGTKVEIKR
notes: hIgG4Pro/hIgK
In turn, B6 returned an IC50 of 0.62 nM.

B7: h15H11-18 (antibody, human IgG4 S228P, kappa, V domains shown)
VH: QVQLVQSGSELKKPGASVKVSCKASGYTFTDYNMHWVRQAPGRSLEWMGRINPKNGVINSNEKFKDRFVFSLDTSVSTAYLQISSLKAEDTAVYYCAPSYYGGNDDAYWGQGTLVTVSS
VL: DIVLTQSPASLAVSPGQRATITCRVSDSVDNYGISFLNWFQQKPGQPPKLLIYAASSQGSGVPARFSGSGSGTDFTLTINPMEANDTANYYCQQSKEFPWTFGGGTKVEIKR
notes: hIgG4Pro/hIgK
On to B7, for which the IC50 was found to be 0.74 nM.

B8: h15H11-13 (antibody, human IgG4 S228P, kappa, V domains shown)
VH: QVQLVQSGSELKKPGASVKVSCKASGYTFTEYNMHWVRQAPGRSLEWMGRINPKNGVINSNEKFKDRFVFSLDTSVSTAYLQISSLKAEDTAVYYCAPSYYGGNDDAYWGQGTLVTVSS
VL: DIVLTQSPASLAVSPGQRATITCRASDSVDNYGISFLNWFQQKPGQPPKLLIYAASSQGSGVPARFSGSGSGTDFTLTINPMEANDTANYYCQQSKEFPWTFGGGTKVEIKR
notes: hIgG4Pro/hIgK
Regarding B8, the IC50 was 0.64 nM.

B9: h15H11-1 (antibody, human IgG4 S228P, kappa, V domains shown)
VH: QVQLVQSGSELKKPGASVKVSCKASGYTFTEYNMHWVRQAPGRSLEWMGRINPKNGVILSNEKFKDRFVFSLDTSVSTAYLQISSLKAEDTAVYYCAPSYYGGDDDAYWGQGTLVTVSS
VL: DIVLTQSPASLAVSPGQRATITCRASDSVDNYGISFLNWFQQKPGQPPKLLIYAASSQGSGVPARFSGSGSGTDFTLTINPMEANDTANYYCQQSKEFPWTFGGGTKVEIKR
notes: hIgG4Pro/hIgK
As to B9, the IC50 was 0.47 nM.

B10: h15H11-16 (antibody, human IgG4 S228P, kappa, V domains shown)
VH: QVQLVQSGSELKKPGASVKVSCKASGYTFTEYNMHWVRQAPGRSLEWMGRINPKNGVINSNEKFKDRFVFSLDTSVSTAYLQISSLKAEDTAVYYCAPSYYGGNDDAYWGQGTLVTVSS
VL: DIVLTQSPASLAVSPGQRATITCRASESVDNYGISFMNWFQQKPGQPPKLLIYAASSQGSGVPARFSGSGSGTDFTLTINPMEANDTANYYCQQSKEFPWTFGGGTKVEIKR
notes: hIgG4Pro/hIgK
As for B10, the IC50 turned out to be 0.68 nM.

B11: h15H11-3 (antibody, human IgG4 S228P, kappa, V domains shown)
VH: QVQLVQSGSELKKPGASVKVSCKASGYTFTEYNMHWVRQAPGRSLEWMGRINPKNGVILSNEKFKDRFVFSLDTSVSTAYLQISSLKAEDTAVYYCAPSYYGGDDDAYWGQGTLVTVSS
VL: DIVLTQSPASLAVSPGQRATITCRASESVDNYGISFMNWFQQKPGQPPKLLIYAASSQGSGVPARFSGSGSGTDFTLTINPMEANDTANYYCQQSKEFPWTFGGGTKVEIKR
notes: hIgG4Pro/hIgK
Molecule B11 displayed an IC50 of 0.5 nM.

B12: h15H11-19 (antibody, human IgG4 S228P, kappa, V domains shown)
VH: QVQLVQSGSELKKPGASVKVSCKASGYTFTEYNMHWVRQAPGRSLEWMGRINPKNGVINSNEKFKDRFVFSLDTSVSTAYLQISSLKAEDTAVYYCAPSYYGGDTDAYWGQGTLVTVSS
VL: DIVLTQSPASLAVSPGQRATITCRASDSVDNYGISFLNWFQQKPGQPPKLLIYAASSQGSGVPARFSGSGSGTDFTLTINPMEANDTANYYCQQSKEFPWTFGGGTKVEIKR
notes: hIgG4Pro/hIgK
As to B12, the concentration for half-maximal inhibition (IC50) is 0.74 nM.

B13: h15H11-4 (antibody, human IgG4 S228P, kappa, V domains shown)
VH: QVQLVQSGSELKKPGASVKVSCKASGYTFTDYNMHWVRQAPGRSLEWMGRINPKNGVILSNEKFKDRFVFSLDTSVSTAYLQISSLKAEDTAVYYCAPSYYGGDDDAYWGQGTLVTVSS
VL: DIVLTQSPASLAVSPGQRATITCRASESVDNYGISFMNWFQQKPGQPPKLLIYAASSQGSGVPARFSGSGSGTDFTLTINPMEANDTANYYCQQSKEFPWTFGGGTKVEIKR
notes: hIgG4Pro/hIgK
Turning to B13, the IC50 worked out at 0.51 nM.

B14: h15H11-14 (antibody, human IgG4 S228P, kappa, V domains shown)
VH: QVQLVQSGSELKKPGASVKVSCKASGYTFTDYNMHWVRQAPGRSLEWMGRINPKNGVINSNEKFKDRFVFSLDTSVSTAYLQISSLKAEDTAVYYCAPSYYGGDDDAYWGQGTLVTVSS
VL: DIVLTQSPASLAVSPGQRATITCRASESVDNYGISFMNWFQQKPGQPPKLLIYAASSQGSGVPARFSGSGSGTDFTLTINPMEANDTANYYCQQSKEFPWTFGGGTKVEIKR
notes: hIgG4Pro/hIgK
In the case of B14, the IC50 amounted to 0.66 nM.

B15: h15H11-17 (antibody, human IgG4 S228P, kappa, V domains shown)
VH: QVQLVQSGSELKKPGASVKVSCKASGYTFTDYNMHWVRQAPGRSLEWMGRINPKNGVINSNEKFKDRFVFSLDTSVSTAYLQISSLKAEDTAVYYCAPSYYGGNDDAYWGQGTLVTVSS
VL: DIVLTQSPASLAVSPGQRATITCRASDSVDNYGISFLNWFQQKPGQPPKLLIYAASSQGSGVPARFSGSGSGTDFTLTINPMEANDTANYYCQQSKEFPWTFGGGTKVEIKR
notes: hIgG4Pro/hIgK
For the molecule B15, the IC50 worked out at 0.7 nM.

B16: h15H11-5 (antibody, human IgG4 S228P, kappa, V domains shown)
VH: QVQLVQSGSELKKPGASVKVSCKASGYTFTEYNMHWVRQAPGRSLEWMGRINPKNGVILSNEKFKDRFVFSLDTSVSTAYLQISSLKAEDTAVYYCAPSYYGGDTDAYWGQGTLVTVSS
VL: DIVLTQSPASLAVSPGQRATITCRASDSVDNYGISFLNWFQQKPGQPPKLLIYAASSQGSGVPARFSGSGSGTDFTLTINPMEANDTANYYCQQSKEFPWTFGGGTKVEIKR
notes: hIgG4Pro/hIgK
The molecule B16 returned an IC50 of 0.52 nM.

B17: h15H11-10 (antibody, human IgG4 S228P, kappa, V domains shown)
VH: QVQLVQSGSELKKPGASVKVSCKASGYTFTEYNMHWVRQAPGRSLEWMGRINPKNGVILSNEKFKDRFVFSLDTSVSTAYLQISSLKAEDTAVYYCAPSYYGGNDDAYWGQGTLVTVSS
VL: DIVLTQSPASLAVSPGQRATITCRASESVDNYGISFMNWFQQKPGQPPKLLIYAASSQGSGVPARFSGSGSGTDFTLTINPMEANDTANYYCQQSKEFPWTFGGGTKVEIKR
notes: hIgG4Pro/hIgK
Consider B17, for which the IC50 turned out to be 0.61 nM.

B18: h15H11-6 (antibody, human IgG4 S228P, kappa, V domains shown)
VH: QVQLVQSGSELKKPGASVKVSCKASGYTFTDYNMHWVRQAPGRSLEWMGRINPKNGVINSNEKFKDRFVFSLDTSVSTAYLQISSLKAEDTAVYYCAPSYYGGDDDAYWGQGTLVTVSS
VL: DIVLTQSPASLAVSPGQRATITCRASDSVDNYGISFLNWFQQKPGQPPKLLIYAASSQGSGVPARFSGSGSGTDFTLTINPMEANDTANYYCQQSKEFPWTFGGGTKVEIKR
notes: hIgG4Pro/hIgK
B18: the IC50 turned out to be 0.57 nM.

B19: h15H11-8 (antibody, human IgG4 S228P, kappa, V domains shown)
VH: QVQLVQSGSELKKPGASVKVSCKASGYTFTDYNMHWVRQAPGRSLEWMGRINPKNGVILSNEKFKDRFVFSLDTSVSTAYLQISSLKAEDTAVYYCAPSYYGGNDDAYWGQGTLVTVSS
VL: DIVLTQSPASLAVSPGQRATITCRASESVDNYGISFMNWFQQKPGQPPKLLIYAASSQGSGVPARFSGSGSGTDFTLTINPMEANDTANYYCQQSKEFPWTFGGGTKVEIKR
notes: hIgG4Pro/hIgK
Molecule B19 displayed an IC50 of 0.6 nM.

B20: h15H11-12 (antibody, human IgG4 S228P, kappa, V domains shown)
VH: QVQLVQSGSELKKPGASVKVSCKASGYTFTEYNMHWVRQAPGRSLEWMGRINPKNGVILSNEKFKDRFVFSLDTSVSTAYLQISSLKAEDTAVYYCAPSYYGGDTDAYWGQGTLVTVSS
VL: DIVLTQSPASLAVSPGQRATITCRASESVDNYGISFMNWFQQKPGQPPKLLIYAASSQGSGVPARFSGSGSGTDFTLTINPMEANDTANYYCQQSKEFPWTFGGGTKVEIKR
notes: hIgG4Pro/hIgK
In the case of B20, the IC50 was 0.62 nM.
